In article PMC10471779, “Antibody-mediated neutralization of galectin-3 as a strategy for the treatment of systemic sclerosis” (Nature Communications, 2023):
Substitutions are numbered along the chain they refer to.

B1: D11 anti-Gal-3 monoclonal antibody (hIgG1 format, LALA) (antibody, V domains shown)
VH: EVQLVESGGSLVKPGGSLRLSCAASGFTFSNYNMNWVRQAPGKGLEWISSIYGSSRYIYYADFVKGRFTISRDNAKNSLYLQMNSLRAEDTAVYYCVRSSYGGMDVWGRGTLVTVSS
VL: QSVLTQPASVSGSPGQSITISCAGTSSDVGGSYNVAWYQQHPGKAPKLMIYYDSYRPSGVSNRFSGSKSGNTASLTISGLQAEDEADYYCSSYTGYSTRVFGGGTKLEIK
notes: from scFv D11 (HuscI library, human framework 13R4); human IgG1 heavy-chain constant region, engineered with the double LALA mutation in the Fc region; IgG1 with LALA; also called D11 mAb; source: CHO-K1 cells (Evitria), transfected, purified (protein A, MabSelect SuRe)
B2: E07 anti-Gal-3 monoclonal antibody (hIgG1 format, LALA) (antibody, V domains shown)
VH: B1 VH with S50N, S100Y
VL: B1 VL with S32Y, N34S, A36S, Y55N
notes: from scFv E07 (HuscI library, human framework 13R4); human IgG1 heavy-chain constant region, engineered with the double LALA mutation in the Fc region; IgG1 with LALA; also called E07 mAb; source: CHO-K1 cells (Evitria), transfected, purified (protein A, MabSelect SuRe)
B3: D11 anti-Gal-3 monoclonal antibody (antibody, V domains shown)
VH: B1 VH
VL: B1 VL
notes: human IgG1, LALA; also called D11 mAb; source: CHO-K1 cells (Evitria), purified (protein A, MabSelect SuRe)
B4: E07 anti-Gal-3 monoclonal antibody (antibody, V domains shown)
VH: B1 VH with S50N, S100Y
VL: B1 VL with S32Y, N34S, A36S, Y55N
notes: human IgG1, LALA; also called E07 mAb; source: CHO-K1 cells (Evitria), purified (protein A, MabSelect SuRe)

Experiments:
Conditions in all cases: both partners purified
[1] = target: T1, recombinant mouse galectin-3, full length, His-tagged (mGal-3-FL-His Nter) (Mus musculus, UniProt P16110); assay: SPR; Biacore T-200, mAb captured on anti-human Fc CM5 surface, Gal-3 0.5 to 50 nM injected, single-cycle kinetics, HBS-P (10 mM HEPES, 150 mM NaCl, 0.05% P20), 25 C, 1:1 Langmuir fit
T1 construct: galectin-3, mouse, full length; source: recombinant, produced by Novalix (Illkirch, France); not shown: His, N-terminal, kept

human galectin-14 = target: T2, human galectin-14 (Homo sapiens, UniProt Q8TCE9); assay: ELISA; dose-response binding ELISA, IgG 0.0009 to 500 nM on immobilised hGal-3-FL and mGal-3-FL (hGal-14 in Supplementary Fig. 7b); detection by anti-hFab-HRP
T2 construct: galectin-14, human; also called hGal-14; Gal-14; source: bought: Novus Biologicals NBP1-50082

[2] = target: T1, recombinant mouse galectin-3, full …; assay: as above
[3] = target: T3, recombinant human galectin-3, full length, His-tagged (hGal-3-FL-His Nter) (Homo sapiens, UniProt P17931); assay: as above
T3 construct: galectin-3, human, full length; the SPR methods say only recombinant Gal-3 (Novalix); also called FL hGal-3; FL-Gal-3; source: recombinant, produced by Novalix (Illkirch, France); not shown: His, N-terminal, kept

[4] = target: T4, recombinant human galectin-3 carbohydrate recognition domain, His-tagged (hGal-3-CRD-His Nter) (human, UniProt P17931); assay: ELISA; competition ELISA: hGal-3-CRD coated at 1 ug/mL, IgG 0.0006 to 780 nM for 1 h, washed, then asialofetuin at 8 ug/mL for 30 min; bound asialofetuin detected by HRP-labelled anti-asialofetuin antibody
T4 construct: galectin-3, human, carbohydrate recognition domain; also called CRD of hGal-3; source: recombinant, produced by Novalix (Illkirch, France); not shown: His, N-terminal, kept

[5] = target: T5, recombinant mouse galectin-3, full-length (Mus musculus, UniProt P16110); assay: SPR; Biacore T-200; mAb captured (400-680 RU) on a CM5 chip with immobilised anti-human Fc mAb; Gal-3 0.5-50 nM injected, single-cycle kinetics, 210 s association, 600 s dissociation, 30 uL/min; HBS-P (10 mM HEPES, 150 mM NaCl, 0.05% P20), 25 °C; 1:1 Langmuir fit; duplicates
T5 construct: galectin-3 (Gal-3), mouse, full-length; the His tag is named for the Novalix protein in the ELISA methods; the SPR methods say only 'recombinant Gal-3 from multiple species (Novalix)'; also called mouse Gal-3 (FL); mGal-3 (FL); source: recombinant, produced by Novalix

[6] = target: T6, recombinant human galectin-3 carbohydrate recognition domain (Homo sapiens, UniProt P17931); assay: as above
T6 construct: galectin-3 (Gal-3), human, carbohydrate recognition domain; the His tag is named in the ELISA methods, not in the SPR methods; also called hGal-3 (CRD); hGal-3-CRD-His Nter; source: recombinant, produced by Novalix

[7] = target: T7, recombinant rat galectin-3 carbohydrate recognition domain (Rattus norvegicus, UniProt P08699); assay: as above
T7 construct: galectin-3 (Gal-3), rat, carbohydrate recognition domain; also called rat Gal-3 (CRD); source: recombinant, Novalix

[8] = target: T8, recombinant human galectin-3, full-length (Homo sapiens, UniProt P17931); assay: as above
T8 construct: galectin-3 (Gal-3), human, full-length; the His tag is named for the Novalix protein in the ELISA methods; the SPR methods say only 'recombinant Gal-3 from multiple species (Novalix)'; also called human Gal-3 (FL); hGal-3 (FL); source: recombinant, produced by Novalix

[9] = target: T9, recombinant dog galectin-3 carbohydrate recognition domain (Canis lupus familiaris, UniProt P38486); assay: as above
T9 construct: galectin-3 (Gal-3), dog, carbohydrate recognition domain; also called dog Gal-3 (CRD); source: recombinant, Novalix

T8 sequence (P17931 whole entry): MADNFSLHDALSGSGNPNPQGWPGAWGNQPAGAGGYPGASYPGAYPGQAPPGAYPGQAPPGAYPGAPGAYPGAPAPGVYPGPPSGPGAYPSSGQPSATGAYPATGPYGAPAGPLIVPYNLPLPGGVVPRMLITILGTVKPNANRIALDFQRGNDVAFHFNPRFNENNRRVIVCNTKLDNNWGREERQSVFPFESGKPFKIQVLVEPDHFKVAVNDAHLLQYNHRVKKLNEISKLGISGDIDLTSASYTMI
T5 sequence (P16110 whole entry): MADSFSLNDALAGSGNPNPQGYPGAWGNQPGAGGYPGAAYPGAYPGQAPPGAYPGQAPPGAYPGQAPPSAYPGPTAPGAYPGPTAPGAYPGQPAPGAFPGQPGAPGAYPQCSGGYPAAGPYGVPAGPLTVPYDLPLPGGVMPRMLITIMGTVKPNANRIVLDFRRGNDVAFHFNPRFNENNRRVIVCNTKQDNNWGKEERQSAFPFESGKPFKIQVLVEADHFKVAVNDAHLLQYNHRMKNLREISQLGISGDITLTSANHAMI
T1 sequence (P16110 whole entry): as above
T3 sequence (P17931 whole entry): as the sequence (P17931 whole entry) above
T4 sequence (P17931 114-250): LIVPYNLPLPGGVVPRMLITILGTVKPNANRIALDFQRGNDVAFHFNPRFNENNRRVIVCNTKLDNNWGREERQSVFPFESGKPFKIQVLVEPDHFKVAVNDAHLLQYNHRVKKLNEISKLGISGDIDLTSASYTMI
T2 sequence (Q8TCE9 whole entry): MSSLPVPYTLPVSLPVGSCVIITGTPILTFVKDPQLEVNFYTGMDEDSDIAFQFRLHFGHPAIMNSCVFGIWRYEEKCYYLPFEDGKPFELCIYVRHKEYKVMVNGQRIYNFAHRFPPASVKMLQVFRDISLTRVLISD

Binder	Kd [1]	EC50 (human galectin-14)	EC50 [2]	EC50 [3]	IC50 [4]	Kd [5]	koff [5]	kon [5]	Kd [6]	koff [6]	kon [6]	Kd [7]	koff [7]	kon [7]	Kd [8]	koff [8]	kon [8]	Kd [9]	koff [9]	kon [9]
B1	< 5 nM	59.9 nM	0.99 nM	0.37 nM	2.18 nM	–	–	–	–	–	–	–	–	–	–	–	–	–	–	–
B2	< 5 nM	90.6 nM	0.3 nM	0.07 nM	1.5 nM	–	–	–	–	–	–	–	–	–	–	–	–	–	–	–
B3	–	–	–	–	–	2.8 nM	0.00178 s⁻¹	635000 M⁻¹ s⁻¹	26.4 nM	0.0428 s⁻¹	1.62e+06 M⁻¹ s⁻¹	8.55 nM	0.018 s⁻¹	2.11e+06 M⁻¹ s⁻¹	14.9 nM	0.0247 s⁻¹	1.66e+06 M⁻¹ s⁻¹	24.7 nM	0.0235 s⁻¹	948000 M⁻¹ s⁻¹
B4	–	–	–	–	–	4.14 nM	0.00407 s⁻¹	983000 M⁻¹ s⁻¹	14.4 nM	0.0377 s⁻¹	2.61e+06 M⁻¹ s⁻¹	15 nM	0.0497 s⁻¹	3.31e+06 M⁻¹ s⁻¹	9 nM	0.0292 s⁻¹	3.24e+06 M⁻¹ s⁻¹	21.5 nM	0.016 s⁻¹	746000 M⁻¹ s⁻¹
